This passage reports FRET efficiency (%E) results from PMC6754399.

This assay deals with Wild-type CFTR (cystic fibrosis transmembrane conductance regulator) N-terminally labelled with GFP or RFP (UniProt P13569). Description: FRET or BRET; acceptor-photobleaching FRET between GFP-CFTR (donor) and RFP-CFTR (acceptor) in fixed HEK293T cells, measured intracellularly, basal conditions (air exposure).

On to “Wild-type CFTR (cystic fibrosis transmembrane conductance regulator) N-terminally labelled with GFP or RFP (from UniProt P13569 1-1480) (natural protein)”, for which the FRET efficiency (%E) turned out to be 0%.
